Source: the supplement of paper PMC10126150
± gives the standard deviation of the averaged measurements.

System: ATP
Experiment: switch fluorescence ratio, 500 uM ATP over buffer (Cy3 cluster intensity, sum of 5 cycles each) (fold (ratio)); higher = stronger signal-on switching upon ATP binding; sequences stand for … in TCGTCGGCAGCGTCAGATGTGTATAAGAGACAGTTTTTTTTTTTTTTTTTTTTTTTTT…TC
Conditions: aptamer strand: ATP DNA aptamer (quencher-CACCTGGGGGAGTATTGCGGAGGAAGG + anchor), 100 nM annealed; ATP concentration: 500 uM
How it was run: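 For every switch-domain sequence, the fluorescence ratio is the mean of per-cluster values, each being summed target-cycle Cy3 intensity over summed buffer-cycle Cy3 intensity. Clusters outside 100-1000 RFU were excluded. On a modified Illumina MiSeq flow-cell, the Cy3-labelled switching-strand clusters were annealed to 100 nM quencher-labelled ATP aptamer, imaged in selection buffer and then after 15 min with 500 uM ATP at 22 °C. Five such cycles were run, with NaOH stripping and re-annealing between them.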
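Note: ATP exposure 15 min at 22 °C before imaging.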

Row | Sequence | switch fluorescence ratio
1 | CAACGGGGGA | 1 ± 0.032
2 | CAACGGGTGC | 1.75 ± 0.21
3 | CAACTATTTT | 1.002 ± 0.0083
4 | CAACTTAGTC | 0.988 ± 0.068
5 | CAAGAAGTGG | 0.993 ± 0.041
6 | CAAGAGGGAG | 0.994 ± 0.018
7 | CAAGCCATCA | 0.9994 ± 0.0092
8 | CAAGCCGTGT | 1.02 ± 0.036
9 | CAAGCGTTGT | 1.03 ± 0.036
10 | CAAGCTTTTT | 0.979 ± 0.032
11 | CAAGGAACGT | 1.01 ± 0.029
12 | CAAGGATGTG | 0.965 ± 0.041
13 | CAAGGCCTGT | 0.971 ± 0.017
14 | CAAGGCTGCA | 1.04 ± 0.06
15 | CAAGGGAATG | 1 ± 0.022
16 | CAAGGGCGGG | 0.997 ± 0.063
17 | CAAGGGGGGT | 1 ± 0.019
18 | CAAGGGTAGG | 1.04 ± 0.021
19 | CAAGGTCAGA | 1.018 ± 0.01
20 | CAAGGTCCAG | 1 ± 0.041
21 | CAAGGTTGTT | 1 ± 0.011
22 | CAAGTAAAAG | 1.01 ± 0.011

Row | Sequence | switch fluorescence ratio
23 | CAAGTAGACC | 0.997 ± 0.13
24 | CAAGTAGAGT | 0.9953 ± 0.0059
25 | CAAGTAGGTG | 1.03 ± 0.015
26 | CAAGTCGTTT | 1.017 ± 0.0023
27 | CAAGTCTATG | 0.973 ± 0.036
28 | CAAGTGAATG | 1.01 ± 0.017
29 | CAAGTGCTTG | 1.03 ± 0.014
30 | CAAGTGGCGG | 0.969 ± 0.016
31 | CAAGTGGGGG | 1.02 ± 0.038
32 | CAAGTTAATG | 0.97 ± 0.041
33 | CAAGTTATGT | 1 ± 0.044
34 | CAAGTTGTTT | 0.996 ± 0.021
35 | CAAGTTTACC | 1.037 ± 0.0023
36 | CAATAAATAG | 1.005 ± 0.006
37 | CAATAAATAT | 0.97 ± 0.032
38 | CAATAAGAGC | 1.09 ± 0.029
39 | CAATAATGTA | 1.03 ± 0.051
40 | CAATACTAAC | 1.32 ± 0.037
41 | CAATAGAGGG | 0.991 ± 0.033
42 | CAATAGCGGT | 1.05 ± 0.02
43 | CAATATCTCC | 2.29 ± 0.16
44 | CAATATTACT | 1.01 ± 0.042

Row | Sequence | switch fluorescence ratio
45 | CAATATTCTT | 1.02 ± 0.027
46 | CAATATTTTT | 1 ± 0.015
47 | CAATCTTGGA | 1 ± 0.012
48 | CAATGAGTAT | 1.011 ± 0.003
49 | CAATGCGACA | 1.39 ± 0.078
50 | CAATGGGACC | 1.011 ± 0.0013
51 | CAATGGGGGA | 1.007 ± 0.0018
52 | CAATGGGTAC | 0.969 ± 0.024
53 | CAATGTCCCG | 0.9985 ± 0.0041
54 | CAATGTGACG | 1.03 ± 0.052
55 | CAATGTGGAG | 0.992 ± 0.055
56 | CAATGTTTGC | 1.002 ± 0.0083
57 | CAATTATTTT | 1.02 ± 0.027
58 | CAATTCGATA | 1.02 ± 0.025
59 | CAATTCGTTA | 1.01 ± 0.0035
60 | CAATTGCATC | 1.02 ± 0.014
61 | CAATTGGATG | 1 ± 0.073
62 | CAATTGGCGT | 0.967 ± 0.021
63 | CAATTGGGTG | 1.06 ± 0.022
64 | CAATTGGTTT | 0.997 ± 0.016
65 | CAATTTCAGC | 0.999 ± 0.025
66 | CAATTTCGGT | 0.996 ± 0.039

Row | Sequence | switch fluorescence ratio
67 | CAATTTGGGG | 0.994 ± 0.02
68 | CAATTTTCGG | 0.989 ± 0.022
69 | CACAAGGGCG | 0.94 ± 0.02
70 | CACAAGTTTT | 1.02 ± 0.03
71 | CACACAAAAT | 0.977 ± 0.014
72 | CACACGTTTT | 1.02 ± 0.013
73 | CACAGCTCAC | 1.79 ± 0.065
74 | CACATGTTAT | 1.0197 ± 0.00089
75 | CACATTAACT | 1.094 ± 0.0047
76 | CACATTACAT | 1.28 ± 0.1
77 | CACCATGTTC | 0.989 ± 0.032
78 | CACCCCGCAC | 3.46 ± 0.48
79 | CACCTGATGG | 0.997 ± 0.025
80 | CACCTGTTGC | 1.02 ± 0.011
81 | CACCTTAATT | 1.037 ± 0.0075
82 | CACCTTACGT | 1.45 ± 0.079
83 | CACGAAGGTG | 1.16 ± 0.032
84 | CACGACTCGT | 1 ± 0.011
85 | CACGAGAACT | 1.1 ± 0.024
